Test results published in patent US20050186575A1.

Experiments:
[1] = biological target: HR1 peptide of the SARS-CoV spike protein (SARS-CoV); assay: pooled complexes heated 5 min in 1x Tricine sample buffer, Tricine SDS-PAGE
[2] = biological target: MHV-A59 spike protein (mouse hepatitis virus strain A59) (UniProt P11224); assay: cell-based or functional assay
[3] = biological target: T1, HR1 peptide of the MHV-A59 spike protein (amino acid residues 953-1048) (mouse hepatitis virus strain A59), P11224
[4] = biological target: T1, HR1 peptide of the MHV-A59 spike …; assay: pooled complexes heated 5 min in 1x Tricine sample buffer, Tricine SDS-PAGE

T1 sequence (P11224 953-1048, tags left off): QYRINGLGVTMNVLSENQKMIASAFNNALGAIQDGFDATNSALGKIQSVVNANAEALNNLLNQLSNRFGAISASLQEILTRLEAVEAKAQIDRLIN

Molecule “HR2 peptide of the SARS-CoV spike protein” has a temperature of dissociation of the complex [1] of 70 °C.

“HR2 peptide of the MHV-A59 spike protein (amino acid residues 1216-1254)” was tested, and the EC50 of inhibition of MHV infection of LR7 cells [2] was 0.9 µM and the spike-mediated cell-cell fusion (luciferase activity) (fold reduction at 10 µM) [2] was 1000.

B1: HR2 peptide of the MHV-A59 spike protein (amino acid residues 1216-1254) (peptide)
peptide: GPIEGRDLSLDFEKLNVTLLDLTYEMNRIQDAIKKLNESYINLKE
modifications: not checked
B1 was tested, and the temperature of full dissociation of the complex [3] was 90 °C, the temperature of partial dissociation of the complex [3] was 80 °C and the temperature up to which the complex remained intact [3] was 70 °C. It also gave a temperature of dissociation of the complex [4] of 90 °C.
